According to the supplement of paper PMC9170038:

Test system: MS2 coat protein
Assay: apparent KD of MS2 coat protein; designed switch direction (-1 OFF switch, 1 ON switch): 1; higher = weaker reporter binding
Method in brief: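 The buffer was Tris-HCl pH 7.5 with KCl, MgCl2, BSA, DTT, tRNA and Tween-20. In it, SNAP-549-labelled MS2 coat protein was titrated in doubling steps from 0.7 or 1.5 nM to 3 µM over chip-bound RNA switches transcribed by stalled E. coli RNA polymerase on Illumina chips. Apparent KD is the per-design median over clusters of curve fits to normalised fluorescence.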

[1] = input ligand: microRNA oligo, concentration not stated
[2] = Eterna round: R95, input ligand: FMN 200 uM
[3] = Eterna round: R95, input ligand: microRNA oligo, concentration not stated
[4] = Eterna round: R95, input ligand: none

Sequence | apparent KD of MS2 coat protein (input ligand: FMN 200 uM) | apparent KD of MS2 coat protein [1] | apparent KD of MS2 coat protein (input ligand: none) | apparent KD of MS2 coat protein [2] | apparent KD of MS2 coat protein [3] | apparent KD of MS2 coat protein [4]
AAAAUAAAAUAAAAGGAUAUAAAAUAAAAUACAUGAGGAUCACCCAUGUAUAAAAUAAAAAAAUAAAAGAAGGAAUAAAAAUAAA [SS2 504: MS2 4] (Eterna round: R96, puzzle: Same State 2) | 28.3 nM | 22.9 nM | 26.7 nM | – | – | –
AUUAUUAAUGCAGGAUAUGAUUAACAUGAGGAUCACCCAUGUGGUGUUGUGAGUAAGGAGAGUGAUCAGAAGGGCAUUUUUUCU [JMF's solution 17] (Eterna round: R96, puzzle: Same State NG 2) | 558 nM | 442 nM | 585 nM | – | – | –
GGGAAGAGGGACAAGGAUAUGUCAGGAGAGACAUGAGGAUCACCCAUGUGGAGGUUGGAGCAGAGACAGAAGGUGUACGGAGAGA [JR_SS2_Sub010] (puzzle: Same State 2) | – | – | – | 108 nM | 118 nM | 145 nM
GGUAUUGACACAGGAUAUGCUUACGAAACGUAAGCAGAAGGGUGAACAUGAGGAUCACCCAUGUAGGUACCAGGGCGUGAGCCC [JL SSNG1 1.75] (Eterna round: R96, puzzle: Same State NG 1) | 151 nM | 694 nM | 1470 nM | – | – | –
UGACACACGGCAGGAUAUCCUUAGCAAAGCUAAGGAGAAGGGCCUCAUGUCGUGGAAACGUGACAUGAGGAUCACCCAUGUCGC [Omei SS(NG)1 Cv8] (Eterna round: R96, puzzle: Same State NG 1) | 58.7 nM | 5.65 nM | 34.1 nM | – | – | –
GCAAACACAUGAGGAUCACCCAUGUGGAAAGAGCAAUUAGGCUAGGAUAUUCAUGUCGUUUGCAAGAAGAAGGAGCCAUAGUGG [Eternabot solution 20] (Eterna round: R96, puzzle: Same State NG 3) | – | 205 nM | – | – | – | –
UGCUGUGUGGUAGGAUAUGUAGGAUAUGUACAUGAGGAUCACCCAUGUCAGUUAAUGACAGAAGGAUAGAAGGACCAGAGGGCU [pwkr ssNG2 2FMN 1F5s.3] (Eterna round: R96, puzzle: Same State NG 2) | 254 nM | 205 nM | 249 nM | – | – | –
UAAGUCAUGUAAGGAUAUGCAGCCGAAACGGCUGCAGAAGGUACUAUAAUUACAUGAGGAUCACCCAUGUUAUAAAAUUUAUAU [Mat - Same State NG 1 - JL mod - D77] (Eterna round: R96, puzzle: Same State NG 1) | 22.4 nM | 39 nM | 54.5 nM | – | – | –
CUGAGAAGUCAAGGAUAUCACGUCGAUUAGACGUGAGAAGGUGAUCAUUACAUGAGGAUCACCCAUGUGUUACAUGGAACUCAG [Brourd's SSNG1/1-A2 mod 7] (Eterna round: R96, puzzle: Same State NG 1) | 672 nM | 659 nM | 762 nM | – | – | –
AAGAGAGGAAGCGAGGAUAUCGUGGGAGGGACAUGAGGAUCACCCAUGUAGGAUGUUGAGAGGAACGAGAAGGCGCAGGAAAGAA [JR_SS2_Sub074] (puzzle: Same State 2) | – | – | – | 87.4 nM | 73.3 nM | 96.1 nM
AGUCCAGCGAAAGCUGGACAAAAGCAUGUACAUGAGGAUCACCCAUGUUCAUGUAUAAGCUUUUUGCUCGUUUUAAA [JL mod - D95 - 17] (puzzle: Sensor for hsa-mir-208a) | – | – | – | 16.2 nM | 10.2 nM | 15.9 nM
AUAAGGCAAGCUUUUUUCUCGUAGUGUAAACAUGAGGAUCACCCAUGUGCCCACCCUGGAUCUUUGAAUCGCAGAAC [Dianancete] (puzzle: Sensor for hsa-mir-208a) | – | – | – | 26.7 nM | 16.6 nM | 27.3 nM
CCGUUCAAUAAACAUGAGGAUCACCCAUGUUAUAAUAUGGGUGAGGAUAUGCAUCUGAAACAGGUGCAGAAGGCAUAAGAGCGG [JL SSNG3 3.92] (Eterna round: R96, puzzle: Same State NG 3) | 214 nM | 37.7 nM | 100 nM | – | – | –
GGAGAGAGAGCGCAGGAUAUUCGAGGAGAAACAUGAGGAUCACCCAUGUGAGAGAGAGAGGAGAAGGAGAAGGGUGAGAGAGAGG [Altered State 2-14 - Jieux - Same State 2] (puzzle: Same State 2) | – | – | – | 147 nM | 34.9 nM | 32.6 nM
CACGUCUAGGUAGGAUAUGAGGUGCCACAGGGAAAAGCCUAUGGACAUGAGGAUCACCCAUGUCCUCAGAAGGGCCAGACGUGA [Inzala] (Eterna round: R96, puzzle: Same State NG 2) | 25.9 nM | 36.9 nM | 52.4 nM | – | – | –
UUAAUAAAUCAAGGAUAUCACGUCGAAUAGACGUGAGAAGGUGAUCAUAACAUGAGGAUCACCCAUGUAUUACAUGAAUAUUAA [SSNG1/1-B1] (Eterna round: R96, puzzle: Same State NG 1) | 522 nM | 40 nM | 512 nM | – | – | –
CAGCACUGUCGAGAGGAUAUGCGGUGAUGGACAUGAGGAUCACCCAUGUUAGCGACAGCAUCACGGCAGAAGGCUCUGCUGCUGC [Soteed Omei mod 36] (puzzle: Same State 2) | – | – | – | – | 47.7 nM | –
GUGCGGCUGCCACAGGAUAUACGUGGAUCGACAUGAGGAUCACCCAUGUAUAUCCUAAUAAUUGCGUAGAAGGGUGGUCAGCCAG [Iserinqu] (puzzle: Same State 2) | – | – | – | 90 nM | 332 nM | 469 nM
UAAAUAAAGUAAGGAUAUACAUGAGGAUUUCUCGUAGAAGGUACAAGACAUGAGGAUCACCCAUGUAUCGCUCGAAAGAGCGUA [Mat - Same State NG 1 - JL mod - D22] (Eterna round: R96, puzzle: Same State NG 1) | 126 nM | 67.5 nM | 208 nM | – | – | –
GUUACAUGAGGAUCACCCAUGUAUGUGUGGGAGUAAGUGUCUUAGGAUAUCUGUUAUUCAAUUUAAGAGAAGGAAGAUUGUUGU [JMF's solution 38] (Eterna round: R96, puzzle: Same State NG 3) | 97.1 nM | 49.5 nM | 76.5 nM | – | – | –
GAGUAGUUGAAAGGAUAUAGAUUAUUGUAGGAUCUAGAAGGUUCUAACAUGAGGAUCACCCAUGUAGGACUAUUCCUGUGUAUC [Parity 88 - Jieux - Same State NG 1] (Eterna round: R96, puzzle: Same State NG 1) | 9.56 nM | 9.27 nM | 12.6 nM | – | – | –
GUACAGAUUAUAGGAUAUCACGUCGAUUAGACGUGAGAAGGAUAAUCACACAUGAAUAUUAAUACAUGAGGAUCACCCAUGUAC [SSNG1/17-A2] (Eterna round: R96, puzzle: Same State NG 1) | 12.9 nM | 12.9 nM | 17 nM | – | – | –
AUAAAACAUGAGGAUCACCCAUGUCAACAAAGUCGAGGAUAUGGGCAAAUAAAAUUAGAACCAGAAGGCGAAUAAU [salish99_ss1_r3_020] (puzzle: Same State 1) | – | – | – | 34.4 nM | 330 nM | 379 nM
